Source: patent publication US7351690B2, “Knockout identification of target-specific sites in peptides” (priority 2000, dated 2008)
Square brackets hold non-standard residues; d marks the D form. Ends that are not written are not given here. Nle = CCCC[C@H](N)C(=O)O

Experiments:
hMC3-R = target: T1, hMC3-R (Homo sapiens, UniProt P41968); assay: competitive inhibition binding assay, 125I-NDP-alpha-MSH, hMC3-R membranes; settings: for % Inhibition at 1 μM at Melanocortin Receptor 3: 1 μM test peptide, 0.4 nM 125I-NDP-alpha-MSH, hMC3-R membranes
T1 construct: expressed in transfected cells
T1 sequence (P41968 whole entry): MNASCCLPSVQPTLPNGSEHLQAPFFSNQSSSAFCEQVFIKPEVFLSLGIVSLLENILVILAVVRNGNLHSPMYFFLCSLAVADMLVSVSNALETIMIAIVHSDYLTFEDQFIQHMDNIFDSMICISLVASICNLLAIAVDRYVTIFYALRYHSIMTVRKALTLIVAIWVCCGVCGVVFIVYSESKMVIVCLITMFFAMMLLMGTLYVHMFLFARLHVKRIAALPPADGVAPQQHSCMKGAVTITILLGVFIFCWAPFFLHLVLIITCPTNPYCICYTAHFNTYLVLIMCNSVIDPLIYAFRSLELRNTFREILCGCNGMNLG
Description: (§1) The competitive inhibition binding assay was conducted using membranes prepared from hMC3-R, hMC4-R, hMC5-R, and B-16 mouse melanoma cells (containing MC1-R) using 0.4 nM ^125I-NDP-alpha-MSH (New England Nuclear, Boston, Mass., USA) in 50 mM HEPES buffer containing 1 mM MgCl2, 2 mM CaCl2, and 5 mM KCl, at pH 7.2. The assay tube also contained a chosen concentration of the test peptide of this invention complexed to a rhenium metal ion, typically at a 1 μM concentration, for determining its efficacy in inhibiting the binding of ^125I-NDP-alpha-MSH to its receptor. Non-specific binding was measured by complete inhibition of binding of ^125I-NDP-alpha-MSH in the assay with the presence of 1 μM alpha-MSH. Incubation was for 90 minutes at room temperature, after which the assay mixture was filtered and the membranes washed three times with ice cold buffer. The filter was dried and counted in a gamma counter for remaining radioactivity bound to the membranes. 100% specific binding was defined as the difference in radioactivity (cpm) bound to cell membranes in the absence and presence of 1 μM alpha-MSH. The cpm obtained in presence of test compounds were normalized with respect to 100% specific binding to determine the percent inhibition of ^125I-NDP-alpha MSH binding. Each assay was conducted in triplicate and the actual mean valves are described.

hMC5-R = target: T2, hMC5-R (Homo sapiens, UniProt P33032); assay: competitive inhibition binding assay, 125I-NDP-alpha-MSH, hMC5-R membranes; settings: for % Inhibition at 1 μM at Melanocortin Receptor 5: 1 μM test peptide, 0.4 nM 125I-NDP-alpha-MSH, hMC5-R membranes
T2 construct: expressed in transfected cells
T2 sequence (P33032 whole entry): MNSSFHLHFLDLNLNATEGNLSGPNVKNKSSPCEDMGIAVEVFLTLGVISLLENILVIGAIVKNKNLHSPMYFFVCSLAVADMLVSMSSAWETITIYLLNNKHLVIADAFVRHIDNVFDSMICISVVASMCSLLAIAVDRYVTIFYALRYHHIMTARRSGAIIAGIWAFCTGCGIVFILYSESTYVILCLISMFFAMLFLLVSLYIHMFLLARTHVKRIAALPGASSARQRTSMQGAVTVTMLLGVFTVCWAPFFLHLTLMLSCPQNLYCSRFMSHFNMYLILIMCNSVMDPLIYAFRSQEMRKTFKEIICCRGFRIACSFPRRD
Description: as §1

MC1-R = target: T3, MC1-R (Mus musculus, UniProt Q01727); assay: competitive inhibition binding assay, 125I-NDP-alpha-MSH, B-16 mouse melanoma cell membranes; settings: for % Inhibition at 1 μM at Melanocortin Receptor 1: 1 μM test peptide, 0.4 nM 125I-NDP-alpha-MSH, B-16 mouse melanoma cell membranes
T3 construct: membranes prepared from hMC3-R, hMC4-R, hMC5-R, and B-16 mouse melanoma cells (containing MC1-R); endogenous in cells; host or cells: B-16 mouse melanoma cells (membranes)
T3 sequence (Q01727 whole entry): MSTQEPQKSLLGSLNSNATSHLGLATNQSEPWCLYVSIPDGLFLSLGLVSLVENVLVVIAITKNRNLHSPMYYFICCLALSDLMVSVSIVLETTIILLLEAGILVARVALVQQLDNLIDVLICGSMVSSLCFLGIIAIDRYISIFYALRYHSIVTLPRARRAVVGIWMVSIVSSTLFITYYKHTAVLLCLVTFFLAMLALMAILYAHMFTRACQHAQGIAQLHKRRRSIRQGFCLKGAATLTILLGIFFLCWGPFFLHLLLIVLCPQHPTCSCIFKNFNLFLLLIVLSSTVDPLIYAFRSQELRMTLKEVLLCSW
Description: as §1

hMC4-R = target: T4, hMC4-R (Homo sapiens, UniProt P32245); assay: competitive inhibition binding assay, 125I-NDP-alpha-MSH, hMC4-R membranes; settings: for % Inhibition at 1 μM at Melanocortin Receptor 4: 1 μM test peptide, 0.4 nM 125I-NDP-alpha-MSH, hMC4-R membranes
T4 construct: expressed in transfected cells
T4 sequence (P32245 whole entry): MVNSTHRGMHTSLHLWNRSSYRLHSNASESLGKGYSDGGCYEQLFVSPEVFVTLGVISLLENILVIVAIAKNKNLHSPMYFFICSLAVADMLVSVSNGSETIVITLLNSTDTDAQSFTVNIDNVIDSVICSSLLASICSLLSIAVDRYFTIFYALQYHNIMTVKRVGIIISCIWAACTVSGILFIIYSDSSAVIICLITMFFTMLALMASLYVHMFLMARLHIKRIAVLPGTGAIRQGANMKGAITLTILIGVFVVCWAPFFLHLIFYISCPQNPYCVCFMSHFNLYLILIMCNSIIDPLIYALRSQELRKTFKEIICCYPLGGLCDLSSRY
Description: as §1

Substance | % Inhibition at 1 μM at Melanocortin Receptor 3 (hMC3-R) [%] | % Inhibition at 1 μM at Melanocortin Receptor 5 (hMC5-R) [%] | % Inhibition at 1 μM at Melanocortin Receptor 1 (MC1-R) [%] | % Inhibition at 1 μM at Melanocortin Receptor 4 (hMC4-R) [%] | binding to MC3-R, in words (hMC3-R) | binding to MC5-R, in words (hMC5-R) | binding to MC1-R, in words (MC1-R) | binding to MC4-R, in words (hMC4-R)
Ac-Ser-Tyr-Ser-Nle-Glu-His-Phe-Arg-Trp-Gly-Lys-Gly-Val-Cys-NH2 (Ac-SYS[Nle]EHFRWGKGVC-NH2; not fully specified (bridges); printed as Ac-Ser-Tyr-Ser-Nle-Glu-His-Phe-Arg-Trp-Gly-Lys-Gly-Val-Cys-NH2; numbers in words are those of the source; also: oxorhenium(V) N3S1 chelate (Re(V)=O)) [1-1] | 48 | 68 | 95 | 63 |  |  |  | 
Ac-Ser-Tyr-Ser-Nle-Glu-His-Phe-Arg-Trp-D-Cys-Gly-Lys-Pro-Val-NH2 (chain 1 Ac-SYS[Nle]EHFRW; chain 2 [dC]GKPV-NH2; not fully specified (bridges); numbers in words are those of the source; also: oxorhenium(V) N3S1 chelate (Re(V)=O)) [2-5] | 0 | 0 | 43 | 4 |  |  |  | 
Tyr-Val-Nle-Gly-His-Phe-Arg-Trp-Asp-Arg-Cys-Phe-NH2 (YV[Nle]GHFRWDRCF-NH2; numbers in words are those of the source; also: oxorhenium(V) N3S1 chelate (Re=O) with Cys) [4-2] | 49 | 51 | 75 | 23 |  |  |  | 
Tyr-Val-Cys-Nle-Gly-His-Phe-Arg-Trp-Asp-Arg-Phe-NH2 (YVC[Nle]GHFRWDRF-NH2; not fully specified (bridges); printed as Tyr-Val-Cys-Nle-Gly-His-Phe-Arg-Trp-Asp-Arg-Phe-NH2; numbers in words are those of the source; also: oxorhenium(V) N3S1 chelate (Re=O) with Cys) [4-10] | 10 | 17 | 28 | 2 |  |  |  | 
Tyr-Val-Nle-Gly-His-Phe-Arg-Trp-Asp-Cys-Arg-Phe-NH2 (YV[Nle]GHFRWDCRF-NH2; numbers in words are those of the source; also: oxorhenium(V) N3S1 chelate (Re=O) with Cys) [4-3] | 18 | 65 | 44 | 23 |  |  |  | 
Ac-Ser-Tyr-Ser-Nle-Glu-His-Phe-Arg-Trp-Gly-D-Cys-Lys-Pro-Val-NH2 (chain 1 EHFRWG; chain 2 CKPV; not fully specified; Ac-Ser-Tyr-Ser-Nle N-term; D-residue; amide; printed: Glu-His-Phe-Arg-Trp-Gly-; printed: Cys-Lys-Pro-Val-) [2-4] | 27 | 21 | 91 | 40 |  |  |  | 
Tyr-Val-Nle-Gly-His-D-Phe-Arg-Trp-Asp-Arg-Cys-NH2 (YV[Nle]GH[dF]RWDRC-NH2; numbers in words are those of the source; also: oxorhenium(V) N3S1 chelate complex (Re=O)) [5-1] | 92 | 98 | 101 | 95 |  |  |  | 
Tyr-Val-Nle-Gly-His-Phe-Arg-Cys-Trp-Asp-Arg-Phe-NH2 (YV[Nle]GHFRCWDRF-NH2; numbers in words are those of the source; also: oxorhenium(V) N3S1 chelate (Re=O) with Cys) [4-5] | 87 | 68 | 89 | 74 | preserved all receptor binding | preserved all receptor binding | preserved all receptor binding | preserved all receptor binding
Ac-Ser-Tyr-Ser-Nle-Glu-His-Phe-Arg-Trp-Gly-Lys-Cys-Pro-Val-NH2 (Ac-SYS[Nle]EHFRWGKCPV-NH2; not fully specified (bridges); printed as Ac-Ser-Tyr-Ser-Nle-Glu-His-Phe-Arg-Trp-Gly-Lys-Cys-Pro-Val-NH2; numbers in words are those of the source; also: oxorhenium(V) N3S1 chelate (Re(V)=O)) [1-3] | 0 | 12 | 87 | 0 |  |  |  | 
Ac-Ser-Tyr-Ser-Nle-Glu-His-D-Cys-Phe-Arg-Trp-Gly-Lys-Pro-Val-NH2 (CFRWGKPV; Ac-Ser-Tyr-Ser-Nle-Glu-His N-term; D-residue; amide; printed: Cys-Phe-Arg-Trp-Gly-Lys-Pro-Val-) [2-8] | 0 | 29 | 69 | 25 |  |  |  | 
Tyr-Val-Nle-Gly-His-Cys-Phe-Arg-Trp-Asp-Arg-Phe-NH2 (YV[Nle]GHCFRWDRF-NH2; numbers in words are those of the source; also: oxorhenium(V) N3S1 chelate (Re=O) with Cys) [4-7] | 17 | 15 | −4 | 4 |  |  |  | 
Tyr-Val-Nle-Gly-His-D-Phe-Arg-Trp-Asp-Cys-Phe-NH2 (YV[Nle]GH[dF]RWDCF-NH2; numbers in words are those of the source; also: oxorhenium(V) N3S1 chelate complex (Re=O)) [5-2] | 39 | 61 | 95 | 58 |  |  |  | 
Tyr-Val-Nle-Gly-His-D-Phe-Arg-Trp-Asp-Arg-Cys-Phe-NH2 (YV[Nle]GH[dF]RWDRCF-NH2; also: Re complex) [3-2] | 91 | 100 | 99 | 89 |  |  |  | 
Ac-Ser-Tyr-Ser-Nle-Glu-His-Phe-Arg-Cys-Trp-Gly-Lys-Pro-Val-NH2 (Ac-SYS[Nle]EHFRCWGKPV-NH2; not fully specified (bridges); printed as Ac-Ser-Tyr-Ser-Nle-Glu-His-Phe-Arg-Cys-Trp-Gly-Lys-Pro-Val-NH2; numbers in words are those of the source; also: oxorhenium(V) N3S1 chelate (Re(V)=O)) [1-6] | 0 | 0 | 29 | 0 |  |  |  | 
Tyr-Val-Nle-Gly-His-D-Phe-Arg-Trp-Cys-Arg-Phe-NH2 (YV[Nle]GH[dF]RWCRF-NH2; numbers in words are those of the source; also: oxorhenium(V) N3S1 chelate complex (Re=O)) [5-3] | 93 | 100 | 100 | 97 |  |  |  | 
